Paper PMC7595197

Target: AtaT (G108D) (enterohemorrhagic E. coli O157:H7)
Assay: crystal structure

Substance: AtaT (G108D) (enzyme)
- stoichiometry N: 2
